Consider three molecules from publication PMC9364107 (The Journal of Biological Chemistry, 2022).

T1: SF3B1 ULM5 peptide (residues 333–351), wildtype (human, UniProt O75533-1 333-351)
T1 peptide: KRKSRWDETPASQMGGSTP

B1: U2AF2 UHM E394K (domain or fragment)
chain: TEVLCLMNMVLPEELLDDEKYEEIVEDVRDECSKYGLVKSIEIPRPVDGVEVPGCGKIFVEFTSVFDCQKAMQGLTGRKFANRVVVTKYCDPDSYHRRDFW
B2: U2AF2 UHM K453A (domain or fragment)
chain: B1 chain with K20E, K79A
B3: U2AF2 UHM E397K (domain or fragment)
chain: B1 chain with K20E, E23K

Changes are numbered by the printed parent chain. Numbers in names are those of the source.

The test addresses T1, SF3B1 ULM5 peptide (residues 333–351), …. The test can be described thus: ITC.
For B1, the “fold reduction in binding affinity against wildtype U2AF2 UHM” value (shortened to “fold reduction in binding affinity”) is around 20 fold.

Turning to B2, the “fold reduction in binding affinity” value was 4 fold.

As to B3, the “fold reduction in binding affinity” value is around 100 fold.
